Reference: PMC10773802, “Electrochemical aptasensor fabricated by anchoring recognition aptamers and immobilizing redox probes on bipolar silica nanochannel array for reagentless detection of carbohydrate antigen 15-3”

Target: carbohydrate antigen 15-3 (CA15-3) (UniProt P15941 24-1097)
Assay: electrochemical aptasensor (DPV, CV, EIS); aptamer immobilized on bp-SNA/ITO with Co(bpy)3 2+ probe, BSA-blocked; linear 0.001-500 U/mL, LOD 0.13 mU/mL (not a Kd); 0.01 M PBS (sodium phosphate), pH 7.4; CA15-3 incubation 80 min at 4 °C; BSA-blocked electrode (0.1 wt%)
Settings: protein: commercial

Sequence of carbohydrate antigen 15-3 (CA15-3) (P15941 24-1097): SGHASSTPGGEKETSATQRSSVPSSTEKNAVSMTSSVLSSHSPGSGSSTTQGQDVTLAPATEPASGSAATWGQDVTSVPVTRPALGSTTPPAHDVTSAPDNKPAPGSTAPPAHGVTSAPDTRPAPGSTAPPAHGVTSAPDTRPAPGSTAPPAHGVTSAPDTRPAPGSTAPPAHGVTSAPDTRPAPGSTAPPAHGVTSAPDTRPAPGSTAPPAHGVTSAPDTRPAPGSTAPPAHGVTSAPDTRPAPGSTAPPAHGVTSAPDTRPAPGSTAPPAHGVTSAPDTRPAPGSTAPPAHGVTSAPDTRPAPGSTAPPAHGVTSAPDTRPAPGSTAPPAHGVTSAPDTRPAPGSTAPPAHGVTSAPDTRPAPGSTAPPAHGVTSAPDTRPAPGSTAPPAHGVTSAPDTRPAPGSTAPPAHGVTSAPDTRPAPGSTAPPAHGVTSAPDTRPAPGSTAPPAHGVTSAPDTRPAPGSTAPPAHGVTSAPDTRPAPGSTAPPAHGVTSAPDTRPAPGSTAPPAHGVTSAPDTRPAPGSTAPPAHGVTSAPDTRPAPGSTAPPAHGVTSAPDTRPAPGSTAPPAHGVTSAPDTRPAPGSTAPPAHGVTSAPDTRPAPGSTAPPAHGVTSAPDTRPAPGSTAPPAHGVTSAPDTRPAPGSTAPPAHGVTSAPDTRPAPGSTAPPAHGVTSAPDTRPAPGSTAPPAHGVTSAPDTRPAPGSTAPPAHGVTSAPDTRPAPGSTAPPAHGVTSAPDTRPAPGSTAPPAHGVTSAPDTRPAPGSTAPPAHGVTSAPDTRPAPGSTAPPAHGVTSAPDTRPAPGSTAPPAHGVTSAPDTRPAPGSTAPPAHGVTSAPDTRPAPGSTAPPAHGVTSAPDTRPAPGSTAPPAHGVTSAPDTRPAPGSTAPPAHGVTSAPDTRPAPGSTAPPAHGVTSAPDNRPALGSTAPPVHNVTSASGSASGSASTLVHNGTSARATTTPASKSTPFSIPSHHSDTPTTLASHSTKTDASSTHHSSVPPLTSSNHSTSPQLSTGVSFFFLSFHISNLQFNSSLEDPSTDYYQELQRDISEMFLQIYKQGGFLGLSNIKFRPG

B1: CA15-3 aptamer (amino-modified) (ssDNA)
DNA: CTTCCTCCCTGAAGTGAATATGACAGATCACAACTTCCCTCCTTC
modifications: 5'-NH2
binding result: binds
